Biological target: T1, corin mutant R801A (Homo sapiens, UniProt Q9Y5Q5, R801A)
T1 construct: expressed in transfected cells; host or cells: HEK293
T1 sequence (Q9Y5Q5 1-1042 R801A): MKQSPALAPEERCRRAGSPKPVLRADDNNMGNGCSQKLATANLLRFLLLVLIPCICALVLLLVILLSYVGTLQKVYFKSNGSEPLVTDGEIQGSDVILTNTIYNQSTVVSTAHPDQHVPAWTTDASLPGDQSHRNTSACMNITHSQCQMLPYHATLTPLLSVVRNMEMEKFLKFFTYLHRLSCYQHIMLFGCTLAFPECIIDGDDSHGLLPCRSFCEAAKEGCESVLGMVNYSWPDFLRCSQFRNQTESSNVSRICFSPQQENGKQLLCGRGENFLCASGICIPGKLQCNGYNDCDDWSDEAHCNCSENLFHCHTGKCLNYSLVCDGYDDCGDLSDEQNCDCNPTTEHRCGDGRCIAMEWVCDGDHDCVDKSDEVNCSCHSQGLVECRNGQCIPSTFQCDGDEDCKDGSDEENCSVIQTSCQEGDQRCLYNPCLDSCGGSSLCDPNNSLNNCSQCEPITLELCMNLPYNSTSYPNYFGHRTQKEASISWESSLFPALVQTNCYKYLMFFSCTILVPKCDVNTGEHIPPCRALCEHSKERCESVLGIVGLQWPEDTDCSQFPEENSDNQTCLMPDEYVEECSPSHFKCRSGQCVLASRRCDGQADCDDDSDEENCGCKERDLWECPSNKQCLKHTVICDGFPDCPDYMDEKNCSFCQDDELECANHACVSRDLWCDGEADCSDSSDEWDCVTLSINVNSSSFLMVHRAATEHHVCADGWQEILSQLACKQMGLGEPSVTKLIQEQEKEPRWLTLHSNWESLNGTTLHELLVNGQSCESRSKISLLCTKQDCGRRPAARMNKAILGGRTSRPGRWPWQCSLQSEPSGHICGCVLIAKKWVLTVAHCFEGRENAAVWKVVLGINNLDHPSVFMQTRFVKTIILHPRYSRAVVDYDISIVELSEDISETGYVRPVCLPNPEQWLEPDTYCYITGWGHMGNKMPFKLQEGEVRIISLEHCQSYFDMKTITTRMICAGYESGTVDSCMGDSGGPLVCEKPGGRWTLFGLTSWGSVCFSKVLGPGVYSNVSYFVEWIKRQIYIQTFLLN
Experiment: Corin activation by purified PCSK6 on HEK293 cells, corin mutant R801A
Type: cell-based
Conditions: corin R801A mutant lacking the cleavage site, 2 h
Procedure: HEK293 and HL-1 cells expressing recombinant corin in 6-well plates were incubated with 1.5 mL (200 μM) of membrane impermeable Sulfo-NHS-SS-biotin for 5 min. Qi et al., J Biol Chem 286, 20963-20969 (2011). A quenching solution was added to the wells and incubated on ice for 10 min. Cells were lysed in the lysis buffer. Labeled proteins were isolated with avidin-coupled agarose beads and analyzed by Western blotting.
Stable HEK293 cells were established to produce human PCSK6 with a C-terminal flag tag. The cells were cultured in DMEM with 10% FBS and 600 μg/mL G418. At confluency, the cells were washed with PBS and cultured with Reduced-Serum Medium. After 72 h, the conditioned medium was collected, centrifuged (10 min at 17,000 g) to remove cell debris, and concentrated to ⅕ of the original volume using a Centrifugal filter unit at 4° C. The concentrated medium was incubated with anti-flag M2 affinity bead slurry in a volume ratio of 25:1 on a rotator at 4° C. for 2 h. […] After centrifugation, the supernatant containing purified PCSK6 was collected, and analyzed by SDS-PAGE followed by silver staining and Western blotting.
Stable HEK293 cells expressing human corin were cultured in 6-well plates in DMEM with 10% FBS and 2 μM monensin. […] After 2 h, cell surface proteins were labeled and corin protein was analyzed by Western blotting.

activation of corin on the cell surface by purified recombinant PCSK6: did not cleave
B1: proprotein convertase subtilisin/kexin-6 (protein, listed as Homo sapiens)
chain: MPPRAPPAPGPRPPPRAAAATDTAAGAGGAGGAGGAGGPGFRPLAPRPWRWLLLLALPAACSAPPPRPVYTNHWAVQVLGGPAEADRVAAAHGYLNLGQIGNLEDYYHFYHSKTFKRSTLSSRGPHTFLRMDPQVKWLQQQEVKRRVKRQVRSDPQALYFNDPIWSNMWYLHCGDKNSRCRSEMNVQAAWKRGYTGKNVVVTILDDGIERNHPDLAPNYDSYASYDVNGNDYDPSPRYDASNENKHGTRCAGEVAASANNSYCIVGIAYNAKIGGIRMLDGDVTDVVEAKSLGIRPNYIDIYSASWGPDDDGKTVDGPGRLAKQAFEYGIKKGRQGLGSIFVWASGNGGREGDYCSCDGYTNSIYTISVSSATENGYKPWYLEECASTLATTYSSGAFYERKIVTTDLRQRCTDGHTGTSVSAPMVAGIIALALEANSQLTWRDVQHLLVKTSRPAHLKASDWKVNGAGHKVSHFYGFGLVDAEALVVEAKKWTAVPSQHMCVAASDKRPRSIPLVQVLRTTALTSACAEHSDQRVVYLEHVVVRTSISHPRRGDLQIYLVSPSGTKSQLLAKRLLDLSNEGFTNWEFMTVHCWGEKAEGQWTLEIQDLPSQVRNPEKQGKLKEWSLILYGTAEHPYHTFSAHQSRSRMLELSAPELEPPKAALSPSQVEVPEDEEDYTAQSTPGSANILQTSVCHPECGDKGCDGPNADQCLNCVHFSLGSVKTSRKCVSVCPLGYFGDTAARRCRRCHKGCETCSSRAATQCLSCRRGFYHHQEMNTCVTLCPAGFYADESQKNCLKCHPSCKKCVDEPEKCTVCKEGFSLARGSCIPDCEPGTYFDSELIRCGECHHTCGTCVGPGREECIHCAKNFHFHDWKCVPACGEGFYPEEMPGLPHKVCRRCDENCLSCAGSSRNCSRCKTGFTQLGTSCITNHTCSNADETFCEMVKSNRLCERKLFIQFCCRTCLLAG
modifications: C-terminal FLAG tag
